We go through 40 sequences from the nanobody polyreactivity screen of Harvey et al. (2022).

The nature of this data set: yeast display, Sf9 membrane polyspecificity reagent, FACS + sequencing; frameworks hold sequencing errors. Put shortly: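 Galactose induction of a Saccharomyces cerevisiae BJ5465 synthetic nanobody display library ran 36–48 hours. The cells were then stained for 1 hour at 4 °C with 10% biotinylated, detergent-solubilized Sf9 membrane reagent, pulled down on streptavidin microbeads and FACS-sorted into low and high (top ~1%) gates on expression and reagent-binding fluorescence. Labels for polyreactivity follow the gate of origin.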
In the case of “QVQLVESGGGLVQAGGSHRLSCAASGSIFVVYAMGWYRQAPGKERELVASIRTGGSTNYADSVKGRFTISRDNAKNTVYLQMNSLKPEDTAVYYCAAASWNSNRHYYVARYYYWGQGTQVTVSS”, the “polyreactivity (PSR sort gate)” value was “high polyreactivity”.

Consider “QVQLVESGGGLVQAGGSHRLSCAASGSIFYSYAMGWYRQAPGKERELVAAITYDTGRTYYADSVKGRFTISRDNAKNTVYLQMNSLKPEDTAVYYCAVRPGYYWGYWPRFGYWGQGTQVTVSS”, for which the “polyreactivity (PSR sort gate)” value is listed as “low polyreactivity”.

Consider “QVQLVESGGGLVQAGGSHRLSCAASGSIYLYYAMGRYRQAPGKERELVAGINRVGSTNYADSVKGRFTISRDNAKNTVYLQMNSLKPEDTAGYYCAKVVNGGYFYYQYPAQYYYWGQGTQVTVSS”, for which the “polyreactivity (PSR sort gate)” value is given as “low polyreactivity”.

For “QVQLVESGGGLVQAGGSHRLSCAASGSNIRFYAMGWYRQAPGKEREFVAAITSSGGNTYYADSVKGRFTISRDNAKNSVYLHMNSLKPEDTAVYYCAARYYGYGFDYWGQGTQVTVSS”, the “polyreactivity (PSR sort gate)” value was “high polyreactivity”.

Regarding “QVQLVESGGGLVQAGGSHRLSCAASGSTFGQNAMGCYRQAPGKERELVAAITRRGVSTYYADSVKGRFTISRDNAKNTVYLQMNSLKPEDTAVYYCAKRYHPNSPYDYWGQGTQVTVSS”, the “polyreactivity (PSR sort gate)” value is “low polyreactivity”.

In the case of “QVQLVESGGGLVQAGGSHRLSCAASGSTFNLNAMGWYRQAPGKERELVAAIDSGGRTNYADSVKGRFTISRDNAKNTVYLQMNSLKPEDTAVYYCADDVYAYPGSWYDYWGQGTQVTVSS”, the “polyreactivity (PSR sort gate)” value is “low polyreactivity”.

Regarding “QVQLVESGGGLVQAGGSHRLSCAASGSTFPAYAMGLYRQAPGKERELVAAINTTGGNTYYADSVKGRFTISRDNAKNTVYFQMNSLKPEDTAVYYCAADYKARYSEKFDYWGQGTQVTVSS”, the “polyreactivity (PSR sort gate)” value is listed as “low polyreactivity”.

Take “QVQLVESGGGLVQAGGSHRLSCAASGSTFVYYAMGWYRQAPGKERELVADISSSTGSTYYADSVKGRFTISRDNAKNTVYLQMNSLKPEDTAVYYCAAGRLKFWYTYIIYDFYYWGQGTQVTVSS”: the “polyreactivity (PSR sort gate)” value is on record as “low polyreactivity”.

Take “QVQLVESGGGLVQAGGSHRLSCAASGSTFWRYAMGWYRQAPGKERELVAAITRRGSSTYYADSVKGRFTISRDNAKNTVYLQMNSLKPEDTAVYYCAREPYPYIRTYILGNYWGQGTQVTVSS”: the “polyreactivity (PSR sort gate)” value is “high polyreactivity”.

Consider “QVQLVESGGGLVQAGGSHRLSCAASGSTFYGYAMGWYRQAPGKESELVAAIRFSGDRTYYADSVKGRFTISRDNAKNTVYLQMNSLKPEDTAVYYCAAYGYPYQRKYGSWGQGTQVTVSS”, for which the “polyreactivity (PSR sort gate)” value is listed as “high polyreactivity”.

“QVQLVESGGGLVQAGGSHRLSCAPSGFTLADYTMAWYRPAPGKERELVAAITSGASTYYADSVKGRFTISRDNAKNTVYLQMNSLKPEDTAGYYCAARNDYYNTFSGYDYWGQGTQVTVSS”: the “polyreactivity (PSR sort gate)” value was “low polyreactivity”.

For “QVQLVESGGGLVQAGGSHRLSSAASGNTFGINAMGWYRQAPGKERELVASISFTGSSTYYADSVKGRFTISRDNAKNTVYLQMNSLKPEDTAVYYCNRDRITLYEYDYWGQGTQVTVSS”, the “polyreactivity (PSR sort gate)” value is “low polyreactivity”.

On to “QVQLVESGGGLVQAGGSIPLTCAASGRTLWGYAMGWYSQAPGKEREMVAAITSGGSTYYADSVKGRFTISRDNAKYYVYLQMNSLKPEDTAVDYCNAVTSIQTSYPSNWGMMDYWGQGSQVTVSS”, for which the “polyreactivity (PSR sort gate)” value is reported as “low polyreactivity”.

As for “QVQLVESGGGLVQAGGSIRLICAASGSIFRLYAKGWYRQAPGKEREFVAAISSRGGSTYYADSVKGRFTISRDKAKNTVYLEMNSLKPEDSAVDYCAVYGYHEGGYWGQGTQVTVSS”, the “polyreactivity (PSR sort gate)” value is on record as “high polyreactivity”.

On to “QVQLVESGGGLVQAGGSIRLSCAASGFIFGLYDMGWYRQAPGKERELDAAISWSGGSTYYADSVKGRFTISRDNAKNTVYLQMNSLKPEDTAVYYCNKDLYADGEYNYDYWGQGTQVTVSS”, for which the “polyreactivity (PSR sort gate)” value is “low polyreactivity”.

Take “QVQLVESGGGLVQAGGSIRLSCAASGFIFYYNPMGWSRQEPGIERELVADITSGRSTYYADSVKGRFTISRDNAKISVYLQLNSLKPEDTAVIYCAVDYDQFGSDEELPPGSDYWGQGTQVTVSS”: the “polyreactivity (PSR sort gate)” value was “low polyreactivity”.

With “QVQLVESGGGLVQAGGSIRLSCAASGFTFRSYTMGWYRQAPGKESELVAAITSRGTSTYYADSVKGRFTIPRDNAKNAVYLQMNSLKPEDTAVYYCNADGTRYAGDDYWGQGTQVTVSS”, the “polyreactivity (PSR sort gate)” value is reported as “high polyreactivity”.

Consider “QVQLVESGGGLVQAGGSIRLSCAASGIIFDTYAMGWYRQAPGKERELVAVISASGGSTYYADSVKGRFTISRDNAKNTVYLQMNSLKPEDTAVYYCAARHSLYGYWGQGTQVTVSS”, for which the “polyreactivity (PSR sort gate)” value is reported as “high polyreactivity”.

For the sequence “QVQLVESGGGLVQAGGSIRLSCAASGLTLIVNSMGWYRQAPGKERDLVASITIGGTTYADSVKGRFTISRDNAKNTVYLQMNSLKTEVTAVYYCAADYSSFSIDTGYDYWGQGTQVTVSS”, the “polyreactivity (PSR sort gate)” value is “low polyreactivity”.

As for “QVQLVESGGGLVQAGGSIRLSCAASGRIFIYNVMGWYRQAPGKERELVATISTGGTTNYADSVKGRFTISRDNAKNTVYLQMNSLKPEETAVYYCIRGSGYWYLPAVKYDHWGQGTQVTVSS”, the “polyreactivity (PSR sort gate)” value is on record as “low polyreactivity”.

For “QVQLVESGGGLVQAGGSIRLSCAASGRTFACNSMGCYRQAPGKERELVARIRSSGSTYYADSVKGRFTISRDNAKNTVYLQMNSLKPEDTAVYYCAADIRFWYGYYYWGQGTQVTVSS”, the “polyreactivity (PSR sort gate)” value is recorded as “high polyreactivity”.

Consider “QVQLVESGGGLVQAGGSIRLSCAASGRTFSKYTMGWYRQAPGKERELVAVISRSGTRTYYADSVKGRFTISRDNAKNTVYLQMNSLKAEDTAVYYCAAKDERRSFGMGYWGQGTHVTVSS”, for which the “polyreactivity (PSR sort gate)” value was “high polyreactivity”.

Regarding “QVQLVESGGGLVQAGGSIRLSCAASGSIFGGYDMGWYRQAPGKERELVSAIDADAGSTYYADSVKGRFTISRDNAKNTVYLQMYSLKPEDTSDDYCGAESYPYFITLYVFTLYGYWGQGTQVTVAS”, the “polyreactivity (PSR sort gate)” value is reported as “low polyreactivity”.

With “QVQLVESGGGLVQAGGSIRLSCAASGSIFVSNAMGWYRQAPGKERELVAAISGGGSTYYADSVKGRFTISRDNAKNTVYLQMNSLKPEDTAVYYCAKKGGHRTYGYDSWGQGTQVTVSS”, the “polyreactivity (PSR sort gate)” value is “low polyreactivity”.

As to “QVQLVESGGGLVQAGGSIRLSCAASGSTYFVYTMGWYRQATGQERELVAAISGSGRSTSYADSVKGRFTISRDNAKNTVYLQMNSLKPEDNAVYYCAARSHVYLRGSTFEFNYWGQGTQVTVSS”, the “polyreactivity (PSR sort gate)” value is listed as “high polyreactivity”.

For “QVQLVESGGGLVQAGGSIRLTCAASGSIFKLYAMGWYRQATGKERELVAAISWRGGSTYYADSVKGRFTISRDIAKNTVYLQMNSLKPEDTAVYYCAAEYRQYDYWGQGTQVTVSS”, the “polyreactivity (PSR sort gate)” value is listed as “high polyreactivity”.

In the case of “QVQLVESGGGLVQAGGSIRLTCAASGSTFWEYVMGWYRQAPGKERELVAAINSGGRTYYADSVKGRFTISRDNAKNTVYLQMNSLKPEDTAVYYCAADTVYRTHHYAQHYYYWGQGTQVTVSS”, the “polyreactivity (PSR sort gate)” value is “high polyreactivity”.

For “QVQLVESGGGLVQAGGSLGLSCAASGFTFGHYAMGWYRPAPGKERELVAAISIDGGRTYYADSVKGRFTISRDNAKKTVYLQMNSLKPEDTAVYYCAVPGWVYYTSDYDYWGQGTQVTVSS”, the “polyreactivity (PSR sort gate)” value is on record as “high polyreactivity”.

Regarding “QVQLVESGGGLVQAGGSLGLSCAASGFTFYFYAMGWYRQAPGKERELVAANSRGTSTYYADSVKGRFTISRDNAKKTVYLQMNRLKPEDTAVYYCAARGLWPYDDWGQGTQVTVSS”, the “polyreactivity (PSR sort gate)” value was “low polyreactivity”.

With “QVQLVESGGGLVQAGGSLGLSCAASGRIFWTYAMGWYRQAPGKERELVASITWSGGSTYYADSVKGRFTISRDNANNTDYLQMNSLKPEDTSVYYCNTDVLAPYDSGYWGQGTQVTVSS”, the “polyreactivity (PSR sort gate)” value was “low polyreactivity”.

Consider “QVQLVESGGGLVQAGGSLGLSCAASGRSFRYYAMGWYIQAPGKERELVAAINWSGGSTYYADSVKGRFTISRDNAKNTVYLHMNRLKPEDTAVYYCNTRWYVGDDWGQGTQVTVSS”, for which the “polyreactivity (PSR sort gate)” value was “high polyreactivity”.

Consider “QVQLVESGGGLVQAGGSLGLSCAASGRTFDDYSMGWYRQAPGKEMEFVAGITDNGGGTNYADSVKGRFTISRDNAMNTVYLQMNSLKPEDTAVYYCNAASDDFFPGRSTYGRDYWGQGTQVTVSS”, for which the “polyreactivity (PSR sort gate)” value is “low polyreactivity”.

With “QVQLVESGGGLVQAGGSLGLSCAASGRTFSFYGMGWYRQAPGKERELVAAINSDSRTNYADSVKGRFTISRDNAKNTVYLQMNSLKPEDTAVYYCNAYWYTSTGQYSYEYWGQGTQVTVSS”, the “polyreactivity (PSR sort gate)” value was “low polyreactivity”.

Take “QVQLVESGGGLVQAGGSLGLSCAASGRTFTPYAMGWYRQAPGIERELVAAIDTSGGSTYADSVKGRFTMSRDNAKNTVYLQMNSLKQEDTAVYYCNVDSAWYPYETEDDWGQGTQVTVSS”: the “polyreactivity (PSR sort gate)” value was “low polyreactivity”.

As for “QVQLVESGGGLVQAGGSLGLSCAASGRTLYRYAMGWYRQARGKERELVAAIRSGGRTNYADSVKGRFTISRDNAKNTVYLQMNSLKPEDTAVYYCAAGTLRYPSTYVDWGQGTQVTVSS”, the “polyreactivity (PSR sort gate)” value is recorded as “high polyreactivity”.

For the sequence “QVQLVESGGGLVQAGGSLGLSCAASGSIFLRYTLGWYRQAPGKERELVAAISWSGGSTYYADSVKGRFTMSRDNAKNNVYLQMNSLKREDTAVYYCNAVYASWSYPGYDYWGQGTQVTVSS”, the “polyreactivity (PSR sort gate)” value was “high polyreactivity”.

Consider “QVQLVESGGGLVQAGGSLGLSCAPSGYTFVPYVMGWYRQAPGKERELVAAISRGGSTYYADSVKGRFTISRDHAKNTVYLQMNSLKPEDTAVYYCNAGWFKYYPNLQAFKYWGQGTQVTVSS”, for which the “polyreactivity (PSR sort gate)” value is recorded as “high polyreactivity”.

Take “QVQLVESGGGLVQAGGSLGLSSAASGIIFLTYAMGWYSQAPGKDRELVAAINSTGSTNYADSVKGRFTISRDNAKNTVYLQMNSLTPEDTAVYYCAAEGLPYVRVFDFVSRYDYWGQGTQVNVSS”: the “polyreactivity (PSR sort gate)” value is listed as “low polyreactivity”.

“QVQLVESGGGLVQAGGSLHLSCAASGRIFRVNAMGWYRQAPGKERELVAAISYRGGRTYYADSVKGRFTFSRDNAKNTVYLQMNSLKPEDTAVYYCAAKVWARVDGRQFRMEYWGQGTQVTVSS”: the “polyreactivity (PSR sort gate)” value is reported as “high polyreactivity”.

“QVQLVESGGGLVQAGGSLLISCAASGSTFLLNAMGWYRQAPGKERELVAAITGSGTTTYYADSVKGRFTISRDNAKNTVFLHMNSLKPEDTAVYYCAAYAYYHTGDDYWGQGTQVTVSS”: the “polyreactivity (PSR sort gate)” value is listed as “high polyreactivity”.
